The source of these data is US20110280881A1 (RIKEN, published 2011).

One assay deals with T1, mouse HSP90α (NP-034610) (mouse, UniProt P07901 2-733).
T1 construct: whole, on cells; also called cell surface HSP90α
The assay is described as follows: antibody bound to living DC2.4 cells, lysis, Protein G-Sepharose, blot. As for the experimental part:
(§1) Mammalian HSP90 occurs in two isoforms: HSP90α and β. The following experiment was performed to determine whether not only HSP90α but also HSP90β is recognized by the antibody of the present invention. […] After being thoroughly washed to remove the unreacted antibody, the cells were lysed; the lysate was centrifuged at 10,000×g, and the resulting supernatant was incubated along with Protein G-Sepharose. The bound material was subjected to SDS-PAGE, after which blotting was performed using an anti-HSP90α antibody (SPS-771, Assay designs), an anti-HSP90β antibody (PB-118-P1, Neomarkers), or an antibody that recognizes both HSP90α and β (6B1C4, another antibody obtained in Example 1).

The target of another assay is T2, mouse HSP90β (NP-032328) (mouse, UniProt P11499 2-724).
T2 construct: whole, on cells; also called cell surface HSP90β
The assay is described as above. The method, then: as §1

T2 sequence (P11499 2-724): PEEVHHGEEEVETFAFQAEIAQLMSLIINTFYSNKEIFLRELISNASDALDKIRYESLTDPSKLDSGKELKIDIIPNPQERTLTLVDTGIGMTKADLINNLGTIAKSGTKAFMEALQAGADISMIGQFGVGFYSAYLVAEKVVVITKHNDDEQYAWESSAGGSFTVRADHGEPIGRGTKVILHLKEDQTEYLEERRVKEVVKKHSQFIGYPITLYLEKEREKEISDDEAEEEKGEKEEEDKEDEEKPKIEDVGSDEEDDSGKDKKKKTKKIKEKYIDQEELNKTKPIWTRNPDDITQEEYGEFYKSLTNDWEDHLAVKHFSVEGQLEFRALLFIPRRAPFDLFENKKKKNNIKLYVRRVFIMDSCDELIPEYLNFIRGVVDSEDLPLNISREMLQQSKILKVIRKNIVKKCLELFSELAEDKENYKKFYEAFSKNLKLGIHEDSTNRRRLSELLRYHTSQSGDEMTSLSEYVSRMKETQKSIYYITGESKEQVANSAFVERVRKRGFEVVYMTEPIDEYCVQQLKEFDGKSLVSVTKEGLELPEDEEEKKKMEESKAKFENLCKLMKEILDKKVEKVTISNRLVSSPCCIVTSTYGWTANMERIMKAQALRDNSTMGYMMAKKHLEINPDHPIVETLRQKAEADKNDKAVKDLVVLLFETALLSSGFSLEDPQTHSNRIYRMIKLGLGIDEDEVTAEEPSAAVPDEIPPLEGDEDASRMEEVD

B1: 6H8D2 anti-HSP90 monoclonal antibody (hybridoma FERM BP-11222) (antibody, V domains shown)
VH: QVQLQQSGPELVKPGASVRISCKASGYTFTSYYIHWVKQRPGQGLEWIGWIYPGNVNTKYNEKFKGKATLTADKSSSTAYMQLSSLTSEDSAVYFCARYGNYPFAYWGQGTLVTVSA
VL: DVVMTQTPLSLPVSLGDQASISCRSSQSLVHSNGNTYLHWYLQKPGQSPKLLIYKVSNRFSGVPDRFSGSGSGTDFTLKISRVEAEDLGVYFCSQSTHVPPTFGGGTKLEIKR
notes: Mouse monoclonal IgG from a hybridoma; Normal mouse IgG2a served as its control; It was biotinylated for FACS; also called 6H8 antibody; 6H8 mAb
Consider B1, for which the binding result with mouse HSP90α (NP-034610) and with mouse HSP90β (NP-032328) was “binds” in each case.
